Key:
[1] = molecular target: T1, H3(1-15)K9me2 peptide (UniProt P59226 2-16, dimethyl-lysine at K9); experiment: ITC; FIG. 3B
T1 peptide: ARTKQTARKSTGGKA

[2] = molecular target: T1, H3(1-15)K9me2 peptide; experiment: ITC; FIG. 3A
[3] = molecular target: H3K4me2; experiment: ITC; FIG. 3B
[4] = molecular target: H4K20me2; experiment: ITC; FIG. 3B

B1: SHH1 SAWADEE domain (residues 125-258) (other)
chain: ADLAFEAKSARDYAWYDVSSFLTYRVLRTGELEVRVRFSGFDNRHDEWVNVKTSVRERSIPVEPSECGRVNVGDLLLCFQEREDQALYCDGHVLNIKRGIHDHARCNCVFLVRYELDNTEESLGLERICRRPEE
Kd [1]: 1900 nM | Kd [2]: 1900 nM

B2: SAWADEE domain (other)
chain: ADLAFEAKSARDYAWYDVSSFLTYRVLRTGELEVRVRFSGFDNRHDEWVNVKTSVRERSIPVEPSECGRVNVGDLLLCFQEREDQALYCDGHVLNIKRGIHDHARCNCVFLVRYELDNTEESLGLERICRRPEE
Kd [3]: 52.1 µM | Kd [4]: 80.6 µM

— patent US20160017348A1 (published 2016)
